Laboratory results published in US20100221257A1 (AstraZeneca / MedImmune, published 2010).

T1: human IL-1R1, endogenous on human cells (HeLa cells; whole blood) (human, UniProt P14778 18-569)
T1 sequence (looked up): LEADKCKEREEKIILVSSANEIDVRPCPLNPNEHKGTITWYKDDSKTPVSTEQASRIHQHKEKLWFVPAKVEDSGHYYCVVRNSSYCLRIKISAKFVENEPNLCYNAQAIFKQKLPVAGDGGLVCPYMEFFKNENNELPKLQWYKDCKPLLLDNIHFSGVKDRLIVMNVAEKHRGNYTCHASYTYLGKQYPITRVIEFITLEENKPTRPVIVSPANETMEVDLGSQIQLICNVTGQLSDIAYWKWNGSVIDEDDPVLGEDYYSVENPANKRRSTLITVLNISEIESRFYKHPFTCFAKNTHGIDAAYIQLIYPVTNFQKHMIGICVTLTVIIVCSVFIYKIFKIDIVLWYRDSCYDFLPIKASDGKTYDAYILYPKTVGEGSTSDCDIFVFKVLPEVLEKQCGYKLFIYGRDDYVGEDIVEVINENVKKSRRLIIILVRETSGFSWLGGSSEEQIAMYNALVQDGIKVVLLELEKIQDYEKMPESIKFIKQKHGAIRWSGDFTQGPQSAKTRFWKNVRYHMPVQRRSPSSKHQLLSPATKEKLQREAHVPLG

T2: cynomolgus IL-1R1, endogenous on CYNOM-K1 cells (cynomolgus monkey, UniProt A0A7N9CMI5 18-569)
T2 sequence: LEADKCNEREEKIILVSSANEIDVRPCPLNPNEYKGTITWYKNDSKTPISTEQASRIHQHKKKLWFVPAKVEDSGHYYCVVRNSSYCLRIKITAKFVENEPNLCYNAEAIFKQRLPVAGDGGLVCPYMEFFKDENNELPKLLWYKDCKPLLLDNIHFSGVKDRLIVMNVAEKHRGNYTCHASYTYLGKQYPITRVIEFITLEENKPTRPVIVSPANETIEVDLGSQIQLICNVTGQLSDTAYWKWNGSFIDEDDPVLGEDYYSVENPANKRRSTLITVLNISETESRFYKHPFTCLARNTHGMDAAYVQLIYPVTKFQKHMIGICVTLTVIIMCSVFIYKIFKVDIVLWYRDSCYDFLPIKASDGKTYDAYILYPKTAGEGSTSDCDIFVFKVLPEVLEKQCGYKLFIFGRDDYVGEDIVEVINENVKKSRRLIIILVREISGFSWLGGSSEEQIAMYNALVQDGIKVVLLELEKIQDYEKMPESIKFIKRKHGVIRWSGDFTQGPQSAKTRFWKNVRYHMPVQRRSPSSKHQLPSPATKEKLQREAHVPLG


Tests used:
[1] = target: T1, human IL-1R1, endogenous on human cells …; experiment: cell-based or functional assay
[2] = target: T1, human IL-1R1, endogenous on human cells …; experiment: cell-based or functional assay; remark: listed apart in the source
[3] = target: T3, human histidine tagged (HIS) IL1RFc fusion protein (human); experiment: HTRF receptor-ligand assay, IgG inhibiting HIS FLAG IL-1Ra binding to cryptate labelled human HIS IL1RFc
T3 construct: Biotinylated or cryptate labelled in some assays; also called human HIS IL1RFc; huIL-1R1-Fc
Method: The ability of lead antibodies to inhibit IL-1Ra to IL-1R1 was assessed in a receptor-ligand binding HTRF® (Homogeneous Time-Resolved Fluorescence) assay format for inhibition of HIS FLAG tagged human IL1Ra (In house, E. Coli expressed; HIS FLAG IL-1RA) binding to human histidine tagged (HIS) IL1RFc fusion protein (in house), as described in the Materials and methods section.
A titration of inhibitor was used in order to establish the clone potency as measured by IC₅₀ values in the assay. All dilutions were carried out in assay buffer as for ligand binding assay above. 5 μl of a titration of inhibitor was added to a 384 well low volume assay plate (Costar 3676). This was then followed by addition of 0.4 nM cryptate labelled HIS IL1RFc. Assay plates were then sealed and incubated at room temperature in dark for 1 hour.

[4] = target: T2, cynomolgus IL-1R1, endogenous on …; experiment: cell-based or functional assay

| Binder | mean IC50 for the 6 donors, inhibition of IL-1β induced IL-6 production in human whole blood [1] [nM] | IC50, inhibition of IL-1β induced IL-6 production in human whole blood, donor 1 [2] [nM] | IC50, inhibition of IL-1β induced IL-6 production in human whole blood, donor 2 [2] [nM] | IC50, inhibition of IL-1β induced IL-6 production in human whole blood, donor 3 [2] [nM] | IC50, inhibition of IL-1β induced IL-6 production in human whole blood, donor 4 [2] [nM] | IC50, inhibition of IL-1β induced IL-6 production in human whole blood, donor 5 [2] [nM] | IC50, inhibition of IL-1β induced IL-6 production in human whole blood, donor 6 [2] [nM] | IC50 [3] [nM] | IC50, inhibition of IL-1β induced IL-8 release from CYNOM-K1 cells, experiment 1 [4] [nM] | IC50, inhibition of IL-1β induced IL-8 release from CYNOM-K1 cells, experiment 2 [4] [nM] |
| --- | --- | --- | --- | --- | --- | --- | --- | --- | --- | --- |
| Antibody 6GL IgG2 (antibody, V domains shown, Germlined IgG2, lambda light chain; also called Antibody 6 IgG2; 28PL GL) VH: not shown VL: QSVLTQPPSVSGAPGQRVTISCTGSSSNIGAGYDVHWYQQLPGTAPKLLIYGDTHRPSGVPDRFSGSKSGTSASLAITGLQAEDEADYYCQSYDTVRLHHVFGGGTKLTVL | 0.229 | 0.091 | 0.295 | 0.116 | 0.309 | 0.167 | 0.321 | 0.181 | 0.8 | 0.6 |
| Antibody 8GL IgG2 (antibody, V domains shown, Germlined IgG2, lambda light chain) VH: not shown VL: QSVLTQPPSVSGAPGQRVTISCTGSSSNIGAGYDVHWYQQLPGTAPKLLIYGDTHRPSGVPDRFSGSKSGTSASLAITGLQAEDEADYYCQSYDTHLVAHVFGGGTKLTVL | – | – | – | – | – | – | – | 0.363 | 4.2 | 2.5 |
| Antibody 10GL IgG2 (antibody, V domains shown, Germlined IgG2, lambda light chain) VH: not shown VL: QSVLTQPPSVSGAPGQRVTISCTGSSSNIGAGYDVHWYQQLPGTAPKLLIYGDTHRPSGVPDRFSGSKSGTSASLAITGLQAEDEADYYCQSYDTRADDAHFGGGTKLTVL | – | – | – | – | – | – | – | 0.323 | 0.9 | 0.7 |
